In publication PMC6451128, “Structural and functional analysis of the nucleotide and DNA binding activities of the human PIF1 helicase”:
Where a chain is given by its changes, count along the chain named.

Columns and labels:
hPIF1HD wild-type = molecular target: T1, hPIF1HD wild-type (human, UniProt Q9H611 206-620); assay: EMSA; no nucleotide; apparent; 20 mM HEPES-NaOH pH 7.5 (Results say pH 7.2), 135 mM NaCl, 5% glycerol, 1 mM DTT, 1 mg/ml BSA, 20 min at 20 C; 0.4 nM T(35); G4 assay: 0.1 nM G4 DNA, 2% PEG 8000 instead of glycerol, 5 uM T(35) competitor; conditions: protein: recombinant; tags: His tag removed by thrombin, GSRM left at N-term; label: 5' 32P (PNK)
T1 sequence: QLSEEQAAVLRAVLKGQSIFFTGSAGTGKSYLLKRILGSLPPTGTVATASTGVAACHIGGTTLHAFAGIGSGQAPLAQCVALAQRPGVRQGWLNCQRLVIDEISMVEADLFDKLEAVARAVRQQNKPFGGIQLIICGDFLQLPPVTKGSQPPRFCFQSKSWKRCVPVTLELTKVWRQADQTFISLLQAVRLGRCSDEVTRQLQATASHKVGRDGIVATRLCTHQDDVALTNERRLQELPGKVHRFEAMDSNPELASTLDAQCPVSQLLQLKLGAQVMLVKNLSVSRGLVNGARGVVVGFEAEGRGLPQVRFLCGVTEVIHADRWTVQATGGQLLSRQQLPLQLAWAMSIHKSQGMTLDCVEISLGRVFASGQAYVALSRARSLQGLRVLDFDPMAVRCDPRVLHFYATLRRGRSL

hPIF1HD P291A = molecular target: T2, hPIF1HD P291A (human, UniProt Q9H611 206-620, P291A); assay: as above; conditions: protein: recombinant; tags: His tag removed, GSRM left; label: 5' 32P (PNK)
T2 sequence: T1 sequence with P86A

hPIF1HD K556A = molecular target: T3, hPIF1HD K556A (human, UniProt Q9H611 206-620, K556A); assay: EMSA; no nucleotide; greatest defect; 20 mM HEPES-NaOH pH 7.5 (Results say pH 7.2), 135 mM NaCl, 5% glycerol, 1 mM DTT, 1 mg/ml BSA, 20 min at 20 C; 0.4 nM T(35); G4 assay: 0.1 nM G4 DNA, 2% PEG 8000 instead of glycerol, 5 uM T(35) competitor; conditions: protein: recombinant; tags: His tag removed, GSRM left; label: 5' 32P (PNK)
T3 sequence: T1 sequence with K351A

TTTTTTTTTTTTTTTTTTTTTTTTTTTTTTTTTTT (ssDNA) [poly-T(35)]
Kd (hPIF1HD wild-type): 2.3 ± 0.3 nM | Kd (hPIF1HD P291A): 1.9 ± 0.6 nM | binding signal (hPIF1HD K556A): > 50 fold decrease in affinity vs WT
